Consider three molecules from article PMC7154896, “The Effect of Recombinant Tags on Citrus paradisi Flavonol-Specific 3-O Glucosyltransferase Activity” (Plants, 2020).

Series [1] addresses T1, untagged Cp3GT (Citrus x paradisi, UniProt C5MR71).
T1 construct: recombinant, Pichia pastoris X-33 (pPicZa), C-terminal c-myc/6x His tags cut off with thrombin; cobalt IMAC; 56 kDa on gel
T1 sequence (C5MR71 1-468): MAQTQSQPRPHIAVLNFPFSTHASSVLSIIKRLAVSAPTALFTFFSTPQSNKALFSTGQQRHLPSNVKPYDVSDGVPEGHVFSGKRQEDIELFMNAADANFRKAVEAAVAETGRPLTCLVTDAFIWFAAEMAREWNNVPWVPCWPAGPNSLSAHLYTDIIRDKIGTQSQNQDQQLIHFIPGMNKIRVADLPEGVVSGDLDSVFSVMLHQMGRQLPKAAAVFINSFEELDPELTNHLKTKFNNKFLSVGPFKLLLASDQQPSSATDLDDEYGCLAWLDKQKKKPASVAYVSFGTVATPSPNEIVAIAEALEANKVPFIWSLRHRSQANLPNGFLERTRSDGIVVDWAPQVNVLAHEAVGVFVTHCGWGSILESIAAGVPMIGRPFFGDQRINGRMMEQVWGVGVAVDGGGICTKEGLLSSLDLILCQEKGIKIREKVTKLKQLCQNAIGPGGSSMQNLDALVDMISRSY
The experiment in a line: glucosyltransferase assay, UDP inhibition. Format: biochemical.

Series [2] addresses T2, tagged Cp3GT (Citrus x paradisi, UniProt C5MR71).
T2 construct: recombinant, Pichia pastoris X-33 (pPicZa), C-terminal thrombin site and c-myc/6x His tags kept; cobalt IMAC
T2 sequence (C5MR71 1-468): T1 sequence (C5MR71 1-468)
The experiment in a line: glucosyltransferase assay, UDP inhibition. Format: biochemical.

Substrate in series [3]: O=c1c(O)c(-c2ccc(O)cc2)oc2cc(O)cc(O)c12
The experiment in a line: purified protein. As to conditions: acceptor varied 0–667 µM, non-limiting UDP-glucose, 30 °C, pH 7.5, µM.

Substrate in series [4]: O=c1ccn([C@@H]2O[C@H](CO[P@@](=O)(O)O[P@@](=O)(O)O[C@H]3O[C@H](CO)[C@@H](O)[C@H](O)[C@H]3O)[C@@H](O)[C@H]2O)c(=O)[nH]1
The experiment in a line: glucosyltransferase assay, Lineweaver-Burk. Format: biochemical, Citrus x paradisi. As to conditions: UDP-glucose varied 0–1333 µM, non-limiting acceptor (not named), 30 °C, pH 7.5, µM. From the text: (§1) glucosyltransferase assay, Lineweaver-Burk on tagged Cp3GT

Substrate in series [5]: O=c1c(O)c(-c2ccc(O)c(O)c2)oc2cc(O)cc(O)c12
Nature of the series: glucosyltransferase assay, Lineweaver-Burk. Format: biochemical, Citrus x paradisi. Particulars: acceptor varied 0–667 µM, non-limiting UDP-glucose, 30 °C, pH 7.5, µM.
Description: as §1

Substrate in series [6]: O=c1ccn([C@@H]2O[C@H](CO[P@@](=O)(O)O[P@@](=O)(O)O[C@H]3O[C@H](CO)[C@@H](O)[C@H](O)[C@H]3O)[C@@H](O)[C@H]2O)c(=O)[nH]1
The experiment in a line: glucosyltransferase assay, Lineweaver-Burk. Format: biochemical, Citrus x paradisi. Particulars: UDP-glucose varied 0–1333 µM, non-limiting acceptor (not named), 30 °C, pH 7.5, µM. The text has this:
(§2) glucosyltransferase assay, Lineweaver-Burk on untagged Cp3GT
The source holds these as a separate data set.

Substrate in series [7]: O=c1c(O)c(-c2ccc(O)c(O)c2)oc2cc(O)cc(O)c12
The experiment in a line: glucosyltransferase assay, Lineweaver-Burk. Format: biochemical, Citrus x paradisi. As to conditions: acceptor varied 0–667 µM, non-limiting UDP-glucose, 30 °C, pH 7.5, µM.
Description: as §2
The source holds these as a separate data set.

As for `O=c1ccn([C@@H]2O[C@H](COP(=O)(O)OP(=O)(O)O)[C@@H](O)[C@H]2O)c(=O)[nH]1` [UDP], the Ki came out at 73.1 µM in series [1] and 61.8 µM in series [2].

B1: tagged Cp3GT (Citrus x paradisi) (protein)
chain: T1 sequence (C5MR71 1-468)
notes: recombinant, Pichia pastoris X-33 (pPicZa), C-terminal thrombin site and c-myc/6x His tags kept; cobalt IMAC
Regarding B1, the Km in series [3] was 44.1 ± 3.41 µM; in series [4] it was 49.7 ± 5.32 µM; in series [5], 51.9 ± 8.29 µM. In addition, the kcat amounted to 1.28 s⁻¹ in series [3], 0.637 ± 0.092 s⁻¹ in series [4] and 1.84 ± 0.19 s⁻¹ in series [5]. Further, the kcat/Km in series [3] was 29000 M⁻¹ s⁻¹; in series [4], 12000 ± 2000 M⁻¹ s⁻¹; in series [5], 35000 ± 1000 M⁻¹ s⁻¹.

B2: untagged Cp3GT (Citrus x paradisi) (protein)
chain: T1 sequence (C5MR71 1-468)
notes: recombinant, Pichia pastoris X-33 (pPicZa), C-terminal c-myc/6x His tags cut off with thrombin; cobalt IMAC; 56 kDa on gel
Regarding B2, in series [3], the Km was 53.7 ± 10.6 µM, the kcat is 1.34 s⁻¹ and the kcat/Km came out at 25000 M⁻¹ s⁻¹. For the same molecule, in series [6], the Km is listed as 55.0 ± 4.97 µM, the kcat was 0.738 ± 0.125 s⁻¹ and the kcat/Km was 12000 ± 400 M⁻¹ s⁻¹. In series [7], the Km is 42.4 ± 3.48 µM, the kcat amounted to 1.54 ± 0.06 s⁻¹ and the kcat/Km is 36000 ± 1000 M⁻¹ s⁻¹.
